Among the data in patent US20260193293A1, “PEPTIDES CAPABLE OF INHIBITING PROTEIN-PROTEIN INTERACTIONS AT GABAB1A SUBUNIT AND USES THEREOF” (UNIVERSITY OF COPENHAGEN, priority 2022, published 2026) are Ki values, retold here.

Non-standard residues stand in square brackets, D forms with d. 2Nal = N[C@@H](Cc1ccc2ccccc2c1)C(=O)O; Sar = CNCC(=O)O

First the molecules themselves.
B1: R4-20 (peptide)
peptide: Ac-RRRREDDD[2Nal]IDWYDSDDD-NH2
SMILES: CC[C@H](C)[C@H](NC(=O)[C@H](Cc1ccc2ccccc2c1)NC(=O)[C@H](CC(=O)O)NC(=O)[C@H](CC(=O)O)NC(=O)[C@H](CC(=O)O)NC(=O)[C@H](CCC(=O)O)NC(=O)[C@H](CCCNC(=N)N)NC(=O)[C@H](CCCNC(=N)N)NC(=O)[C@H](CCCNC(=N)N)NC(=O)[C@H](CCCNC(=N)N)NC(C)=O)C(=O)N[C@@H](CC(=O)O)C(=O)N[C@@H](Cc1c[nH]c2ccccc12)C(=O)N[C@@H](Cc1ccc(O)cc1)C(=O)N[C@@H](CC(=O)O)C(=O)N[C@@H](CO)C(=O)N[C@@H](CC(=O)O)C(=O)N[C@@H](CC(=O)O)C(=O)N[C@@H](CC(=O)O)C(N)=O
B2: …(N-Me-G)TGDED (peptide)
peptide: Ac-EDDSDVWWYG[Sar]TGDED-NH2
SMILES: CC(=O)N[C@@H](CCC(=O)O)C(=O)N[C@@H](CC(=O)O)C(=O)N[C@@H](CC(=O)O)C(=O)N[C@@H](CO)C(=O)N[C@@H](CC(=O)O)C(=O)N[C@H](C(=O)N[C@@H](Cc1c[nH]c2ccccc12)C(=O)N[C@@H](Cc1c[nH]c2ccccc12)C(=O)N[C@@H](Cc1ccc(O)cc1)C(=O)NCC(=O)N(C)CC(=O)N[C@H](C(=O)NCC(=O)N[C@@H](CC(=O)O)C(=O)N[C@@H](CCC(=O)O)C(=O)N[C@@H](CC(=O)O)C(N)=O)[C@@H](C)O)C(C)C
B3: …(N-Me-G)TGDED (peptide)
peptide: Ac-EDDSDVWWY[Sar]TGDED-NH2
SMILES: CC(=O)N[C@@H](CCC(=O)O)C(=O)N[C@@H](CC(=O)O)C(=O)N[C@@H](CC(=O)O)C(=O)N[C@@H](CO)C(=O)N[C@@H](CC(=O)O)C(=O)N[C@H](C(=O)N[C@@H](Cc1c[nH]c2ccccc12)C(=O)N[C@@H](Cc1c[nH]c2ccccc12)C(=O)N[C@@H](Cc1ccc(O)cc1)C(=O)N(C)CC(=O)N[C@H](C(=O)NCC(=O)N[C@@H](CC(=O)O)C(=O)N[C@@H](CCC(=O)O)C(=O)N[C@@H](CC(=O)O)C(N)=O)[C@@H](C)O)C(C)C

This experiment deals with Sushi domains (SD1/2) protein of GABAB1a (GB1a). Nature of the experiment: FP competition vs TAMRA AJAP-1probe.
Sushi domains (SD1/2) protein of GABAB1a (GB1a), sequence (Q9Z0U4 29-158): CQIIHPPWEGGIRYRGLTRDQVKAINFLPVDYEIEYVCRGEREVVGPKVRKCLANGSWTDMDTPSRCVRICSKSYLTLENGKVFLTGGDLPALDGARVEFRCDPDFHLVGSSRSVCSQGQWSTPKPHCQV
In general, Ki refers to a measure of affinity in units of concentration, obtained from inhibition or displacement. Low readings indicate a stronger hold on the target, high ones a looser hold on the target. Turning to B1, the Ki amounted to 15 nM.

Regarding Ac-RRRRRREDDDWIDWGPTSDDD-NH2, the Ki was 43.4 nM.

Consider Ac-RRRRREDDDWIDWYDSDDD-NH2, for which the inhibitory constant (Ki) stood at 39.5 nM.

Consider Ac-EDDSWIWWYGADTD-NH2 [peptide 28], for which the Ki was determined as 18 nM. Molecule Ac-EDDDWIDWYDSDDDEAAAKRRRRRRRR-NH2 [16-RL-R8] displayed an inhibition constant (Ki) of 99.5 nM.

Ac-EDDDWIDWYDSDDDRRRRRRRR-NH2 [16-R8] came in with a Ki of 65.3 nM. Ac-RRRRRRREDDDWIDWYDSDDD-NH2 registered a Ki of 89.1 nM. In turn, Ac-EDDYIDWGPTSDDD-NH2 [peptide 19] gave a Ki of 3.8 nM. The value for Ac-RRRRRRRREDDDWIDWGPTSDDD-NH2 [R8-17] was 58.1 nM; that for Ac-RRRRRRREDDDWIDWGPTSDDD-NH2 was 65 nM; that for Ac-EDDDWIDWGPTSDDDRRRRRRRR-NH2 [17-R8] was 123 nM. The value for B2 was 138 nM; that for Ac-RRRRRREDDDWIDWYDSDDD-NH2 was 70.9 nM. The molecule Ac-EDDDWIDWYDSDDD-NH2 [peptide 16] showed a Ki of 3.2 nM. Ac-EDDDWIDWGPTSDDD-NH2 [peptide 17] yielded a Ki of 4 nM. Ac-EDDYIDWYDSDDD-NH2 [peptide 18] came in with a Ki of 4.6 nM. The value for B3 was 142 nM; that for Ac-EDDDWIDWYDSDDDGGGGSRRRRRRRR-NH2 [16-FL-R8] was 118 nM. Molecule Ac-RRRRRRRREAAAKEDDDWIDWYDSDDD-NH2 [R8-RL-16] came in with a Ki of 314 nM. As for Ac-EDDDWIDWGPTSDDDEAAAKRRRRRRRR-NH2 [17-RL-R8], the Ki was determined as 139 nM. This Ki lies about 2.3-fold lower than the previous one.

Ac-EDDSWIDWYGADTD-NH2 [peptide 30] yielded a Ki of 11 nM. This Ki is about 13-fold lower than that of the molecule before. With Ac-EDDDWIDWGPTSDDDGGGGSRRRRRRRR-NH2 [17-FL-R8] the figure was 147 nM; with Ac-RRRRRRRRGGGGSEDDDWIDWYDSDDD-NH2 [R8-FL-16], 280 nM; with Ac-RRRRREDDDWIDWGPTSDDD-NH2, 32 nM.

In turn, Ac-RRRRRRRREAAAKEDDDWIDWGPTSDDD-NH2 [R8-RL-17] yielded a Ki of 105 nM. As for Ac-RRRREDDDWIDWYDSDDD-NH2 [4R-16], the Ki was found to be 20.6 nM. On to Ac-RRREDDDWIDWGPTSDDD-NH2 [R3-17], for which the Ki was found to be 9 nM.

In turn, Ac-RRRREDDDWIDWGPTSDDD-NH2 [4R-17] yielded a Ki of 15 nM. As to Ac-RRRRRRRREDDDWIDWYDSDDD-NH2 [R8-16], the inhibition constant (Ki) is 107 nM. Consider Ac-RRREDDDWIDWYDSDDD-NH2 [R3-16], for which the Ki worked out at 6.4 nM. Ac-EDDSWIWWGPTGDED-NH2 [peptide 27] showed an inhibition constant (Ki) of 16 nM. This Ki lies about 2.5-fold higher than the previous one.

For Ac-EDDSWIDWGPTGDED-NH2 [peptide 29], the Ki turned out to be 5.6 nM.

In turn, Ac-RRRRRRRRGGGGSEDDDWIDWGPTSDDD-NH2 [R8-FL-17] had a Ki of 140 nM.
